Assay results: patent US20200199204A1

How the values were obtained:
Assay in all cases: cell-based or functional assay
[1] = biological target: HIV-1 Env of 0260.v5.c36 (HIV-1)
[2] = biological target: HIV-1 Env of 191821.E6.1 (HIV-1)
[3] = biological target: HIV-1 Env of 3016.V5.c36 (HIV-1)
[4] = biological target: HIV-1 Env of 6405.v4.c34 (HIV-1)
[5] = biological target: HIV-1 Env of 6535.3 (HIV-1)
[6] = biological target: HIV-1 Env of 96ZM651.02 (HIV-1)
[7] = biological target: HIV-1 Env of AC10.29 (HIV-1)
[8] = biological target: HIV-1 Env of BG505.w6m (HIV-1)
[9] = biological target: HIV-1 Env of C1080.c3 (HIV-1)
[10] = biological target: HIV-1 Env of CAAN.A2 (HIV-1)
[11] = biological target: HIV-1 Env of CAP210.E8 (HIV-1)
[12] = biological target: HIV-1 Env of CAP244.D3 (HIV-1)
[13] = biological target: HIV-1 Env of CAP256.PI (HIV-1)
[14] = biological target: HIV-1 Env of CAP256.SU (HIV-1)
[15] = biological target: HIV-1 Env of CAP45.G3 (HIV-1)
[16] = biological target: HIV-1 Env of CM244.ec1 (HIV-1)
[17] = biological target: HIV-1 Env of CNE3 (HIV-1)
[18] = biological target: HIV-1 Env of DU156.12 (HIV-1)
[19] = biological target: HIV-1 Env of DU172.17 (HIV-1)
[20] = biological target: HIV-1 Env of DU422.01 (HIV-1)
[21] = biological target: HIV-1 Env of KER2008.12 (HIV-1)
[22] = biological target: HIV-1 Env of KER2018.11 (HIV-1)
[23] = biological target: HIV-1 Env of MB201 (HIV-1)
[24] = biological target: HIV-1 Env of MB539.2B7 (HIV-1)
[25] = biological target: HIV-1 Env of PVO.04 (HIV-1)
[26] = biological target: HIV-1 Env of Q168.a2 (HIV-1)
[27] = biological target: HIV-1 Env of Q23.17 (HIV-1)
[28] = biological target: HIV-1 Env of Q259.d2.17 (HIV-1)
[29] = biological target: HIV-1 Env of Q461.e2 (HIV-1)
[30] = biological target: HIV-1 Env of Q769.d22 (HIV-1)
[31] = biological target: HIV-1 Env of Q842.d12 (HIV-1)
[32] = biological target: HIV-1 Env of QH0692.42 (HIV-1)
[33] = biological target: HIV-1 Env of REJO.67 (HIV-1)
[34] = biological target: HIV-1 Env of RHPA.7 (HIV-1)
[35] = biological target: HIV-1 Env of RW020.2 (HIV-1)
[36] = biological target: HIV-1 Env of SC422.8 (HIV-1)
[37] = biological target: HIV-1 Env of TH976.17 (HIV-1)
[38] = biological target: HIV-1 Env of THRO.18 (HIV-1)
[39] = biological target: HIV-1 Env of TRJO.58 (HIV-1)
[40] = biological target: HIV-1 Env of TRO.11 (HIV-1)
[41] = biological target: HIV-1 Env of UG037.8 (HIV-1)
[42] = biological target: HIV-1 Env of WITO.33 (HIV-1)
[43] = biological target: HIV-1 Env of ZM109.4 (HIV-1)
[44] = biological target: HIV-1 Env of ZM135.10a (HIV-1)
[45] = biological target: HIV-1 Env of ZM197.7 (HIV-1)
[46] = biological target: HIV-1 Env of ZM214.15 (HIV-1)
[47] = biological target: HIV-1 Env of ZM233.6 (HIV-1)
[48] = biological target: HIV-1 Env of ZM249.1 (HIV-1)
[49] = biological target: HIV-1 Env of ZM53.12 (HIV-1)

CAP256-VRC26.15 (antibody)
IC50 [1]: > 50 µg/mL
IC50 [2]: > 50 µg/mL
IC50 [3]: 0.16 µg/mL
IC50 [4]: > 50 µg/mL
IC50 [5]: > 50 µg/mL
IC50 [6]: > 50 µg/mL
IC50 [7]: > 50 µg/mL
IC50 [8]: 11.7 µg/mL
IC50 [9]: > 50 µg/mL
IC50 [10]: > 50 µg/mL
IC50 [11]: 0.019 µg/mL
IC50 [12]: > 50 µg/mL
IC50 [13]: > 50 µg/mL
IC50 [14]: 8 ng/mL
IC50 [15]: > 50 µg/mL
IC50 [16]: 0.112 µg/mL
IC50 [17]: > 50 µg/mL
IC50 [18]: 10.4 µg/mL
IC50 [19]: > 50 µg/mL
IC50 [20]: 0.153 µg/mL
IC50 [21]: > 50 µg/mL
IC50 [22]: 0.04 µg/mL
IC50 [23]: > 50 µg/mL
IC50 [24]: > 50 µg/mL
IC50 [25]: 30 µg/mL
IC50 [26]: > 50 µg/mL
IC50 [27]: 0.338 µg/mL
IC50 [28]: 0.657 µg/mL
IC50 [29]: 19.9 µg/mL
IC50 [30]: > 50 µg/mL
IC50 [31]: 9.35 µg/mL
IC50 [32]: > 50 µg/mL
IC50 [33]: > 50 µg/mL
IC50 [34]: > 50 µg/mL
IC50 [35]: > 50 µg/mL
IC50 [36]: > 50 µg/mL
IC50 [37]: > 50 µg/mL
IC50 [38]: > 50 µg/mL
IC50 [39]: > 50 µg/mL
IC50 [40]: > 50 µg/mL
IC50 [41]: > 50 µg/mL
IC50 [42]: > 50 µg/mL
IC50 [43]: > 50 µg/mL
IC50 [44]: > 50 µg/mL
IC50 [45]: 14.6 µg/mL
IC50 [46]: > 50 µg/mL
IC50 [47]: 0.192 µg/mL
IC50 [48]: > 50 µg/mL
IC50 [49]: 14 ng/mL

CAP256-VRC26.16 (antibody)
IC50 [1]: > 50 µg/mL
IC50 [2]: 0.82 µg/mL
IC50 [3]: 0.012 µg/mL
IC50 [4]: > 50 µg/mL
IC50 [5]: > 50 µg/mL
IC50 [6]: > 50 µg/mL
IC50 [7]: > 50 µg/mL
IC50 [8]: 0.36 µg/mL
IC50 [9]: 5.9 µg/mL
IC50 [10]: > 50 µg/mL
IC50 [11]: 0.009 µg/mL
IC50 [12]: > 50 µg/mL
IC50 [13]: > 50 µg/mL
IC50 [14]: 4 ng/mL
IC50 [15]: > 50 µg/mL
IC50 [16]: 0.67 µg/mL
IC50 [17]: > 50 µg/mL
IC50 [18]: 48.7 µg/mL
IC50 [19]: > 50 µg/mL
IC50 [20]: 3.9 µg/mL
IC50 [21]: > 50 µg/mL
IC50 [22]: 0.062 µg/mL
IC50 [23]: > 50 µg/mL
IC50 [24]: > 50 µg/mL
IC50 [25]: > 50 µg/mL
IC50 [26]: > 50 µg/mL
IC50 [27]: > 50 µg/mL
IC50 [28]: 5.78 µg/mL
IC50 [29]: > 50 µg/mL
IC50 [30]: > 50 µg/mL
IC50 [31]: > 50 µg/mL
IC50 [32]: > 50 µg/mL
IC50 [33]: > 50 µg/mL
IC50 [34]: > 50 µg/mL
IC50 [35]: > 50 µg/mL
IC50 [36]: > 50 µg/mL
IC50 [37]: > 50 µg/mL
IC50 [38]: > 50 µg/mL
IC50 [39]: > 50 µg/mL
IC50 [40]: > 50 µg/mL
IC50 [41]: > 50 µg/mL
IC50 [42]: > 50 µg/mL
IC50 [43]: > 50 µg/mL
IC50 [44]: > 50 µg/mL
IC50 [45]: 2.21 µg/mL
IC50 [46]: > 50 µg/mL
IC50 [47]: 0.031 µg/mL
IC50 [48]: 45 µg/mL
IC50 [49]: 6 ng/mL
